Holding throughout (test): Mass spectroscopy proteomics, semi-quantitative binding affinity of serum proteins (plaqueproteome, Table 2)
Holding throughout (settings): higher number = stronger affinity

Assay [1] concerns the target T1, Abeta-42 plaque particles (Homo sapiens, UniProt P05067).
T1 construct: Abeta 1-42
The method, then: Next to isolate serum derived Abeta-42 plaque particles, the plasma or serum samples obtained from AD subjects were first centrifuged at 5,000 rpm for 5 min and the supernatants were transferred to new centrifuge tubes. Next, the supernatants were diluted in PBS to make 50% of the serum and plasma samples and used for incubation with Abeta-42 plaque oligomers/aggregates. Each assay was performed in 1 mL reaction (800 μL of 50% plasma or serum) and 200 μL (30 μg) of the Abeta-42 aggregates and the mixtures were incubated at 37° C. for 1 hr. To the mixture Thioflavin S dye (120 μg) was added and the sample was incubated for additional 30 min at 37° C. After the incubation, the mixture was directly used for sample acquisition using flow cytometer (FACS ARIA II, BD Biosciences, San Jose, Calif.). After initial detection of Abeta-42 plaque particles in the acquisition blot, gates were drawn in fluorescent dot blot to separately sort and isolate fluorescently labeled Abeta-42 particles.
(§1) For preparing trypsin digested peptide sequences, the isolated plaque particles were centrifuged at 10000 rpm for 5 min and the pellet containing plaque particles was resuspended in 100 μl PBS buffer. Stock solutions of digestion buffer (Ammonium Biocarbonate 50 mM), reducing buffer (DDT 100 mM) and alkylation buffer (lodoaceamide 100 mM) were prepared and stored at −20° C. for up to two months. For trypsin digestion, 100 μl of each plaque particles (2000 of Abeta-42, cholesterol, Tau and alpha-synuclein) were precipitated using cold acetone −80° C. by adding 4X's the volume. The samples were placed on dry ice for 10 min with intermittent vortex. Next, the samples were centrifuged at 4° C. at 10000 G for 10 min. Top layer of acetone was carefully removed from the tube with care not to disturb the plaque particles pellet. The samples were speed-vac for 10 min to ensure all acetone has been boiled away. The plaque particles pellet were reconstituted with 15 μl 8M Urea 100 mM Ammonium bicarbonate stock and 20 μl protease max solution. The protease max solution (Promega, Madison, Wis.) was prepared from stock by adding 60 μl 50 mM Ammonium bicarbonate and used for 3 solution digests (20 μl each). […] The tubes were incubated at 55° C. for 30 minutes. The tubes were then removed and brought to the room temperature followed by addition of 3.2 μl of 1M acrylamide and incubated at room temperature for 30 minutes. To the sample, 63 μL of 50 mM Ammonium bicarbonate was added for a final volume of 98 μl and 2 μl of trypsin (10 μg, Trypsin/Lys C Mix). After mixing the solution with pipet the samples were incubated at 37° C. overnight. After the overnight digest, the tryptic digest were quenched and acidified by adding 10 μl of 50% formic acid/water stock dilution. The samples were centrifuged at 10000 G for 2 minutes and purified using stage tip and used for MS/Mass analysis.
(§2) All MS/MS samples were analyzed using Sequest (Thermo Fisher Scientific, San Jose, Calif., USA; version 1.0). Sequest was set up to search the SUMS_uniprot_Human database (35847 entries) assuming the digestion enzyme strict trypsin. Sequest was searched with a fragment ion mass tolerance of 1.00 Da and a parent ion tolerance of 20 PPM. Propionamide of cysteine was specified in Sequest as a fixed modification. Oxidation of methionine and phospho of serine, threonine and tyrosine were specified in Sequest as variable modifications.
Scaffold (version Scaffold_4.2.1, Proteome Software Inc., Portland, Oreg.) was used to validate MS/MS based peptide and protein identifications. […] Protein probabilities were assigned by the Protein Prophet algorithm (Nesvizhskii, Al et al 2003). […] Proteins sharing significant peptide evidence were grouped into clusters. Proteins were annotated with GO terms from NCBI (downloaded Jan. 17, 2014).

The subject of assay [2] is High Density cholesterol (Chl Large) plaque particles. Also noted: species or system human. On the procedure: (§3) The goal was to isolate plaque particles synthesized in the bio-fluids in a relatively pure form to enable their subsequent use for identification of components that contribute to the plaque formation. In order to isolate cholesterol plaque particles, the plasma or serum samples obtained from atherosclerotic subjects were first centrifuged at 5,000 rpm for 5 min and the supernatants were transferred to new centrifuge tubes. Next, the supernatants were diluted in PBS to make 50% of the serum and used for incubation with cholesterol oligomers/aggregates. Each assay was performed in 1 mL reaction (800 μL of 50% plasma or serum) and 200 μL (30 μg) of the Cholesterol aggregates and the mixtures were incubated at 37° C. for 1 hr After the incubation, the mixture was directly used for sample acquisition using flow cytometer (FACS ARIA II, BD Biosciences, San Jose, Calif.). […] In order to isolate these fractions, three sets of gates were drawn in the acquisition blot to separately sort and isolate High density or high complex cholesterol particles, Low density or low complex cholesterol particles and both High and low density cholesterol particles together.
as §1, §2
(§4) Scaffold (version Scaffold_4.2.1, Proteome Software Inc., Portland, Oreg.) was used to validate MS/MS based peptide and protein identifications. […] Protein probabilities were assigned by the Protein Prophet algorithm (Nesvizhskii, Al et al 2003).

Assay [3] deals with Low density cholesterol (Chl small) plaque particles. Also noted: species or system human. On the procedure:
as §3, §1, §2, §4

Assay [4] concerns the target T2, alpha-synuclein plaque particles (Homo sapiens, UniProt P37840).
T2 construct: 140 amino acids polypeptide
On the procedure:
To prepare oligomers/aggregates of human alpha-synuclein (140 amino acids polypeptide), 1 mg of the recombinant alpha-synuclein protein was suspended in 1 mL of PBS and the sample was incubated at 37° C. for 2 hrs. After incubation, all the samples were centrifuged for 5 min. at 5000 rpm to remove precipitate, if any, and the supernatant containing oligomers/aggregates were used in vitro plaque particles formation assay. For detecting alpha-synuclein plaque particles Thioflavin S (Ex/Em=430 nm/550 nm) amyloid binding fluorescent dye (10 μg) was used.
Similarly, to isolate alpha-synuclein plaque particles, diluted plasma or serum samples obtained from AD subjects were used for incubation with alpha-synuclein plaque oligomers/aggregates. Each assay was performed in 1 mL reaction (800 μL of 50% plasma or serum) and 200 μL (30 μg) of the alpha-synuclein aggregates and the mixtures were incubated at 37° C. for 1 hr. To the mixture Thioflavin S dye (120 μg) was added and the sample was incubated for additional 30 min at 37° C. After the incubation, the mixture was directly used for sample acquisition using flow cytometer (FACS ARIA II, BD Biosciences, San Jose, Calif.). After initial detection of alpha-synuclein plaque particles, gates were drawn in the acquisition blot to separately sort and isolate fluorescently labeled alpha-synuclein particles.
as §1, §2
Scaffold (version Scaffold_4.2.1, Proteome Software Inc., Portland, Oreg.) was used to validate MS/MS based peptide and protein identifications.

In assay [5] the test system is Tau plaque particles. Also noted: species or system human. On the procedure:
For Tau-74 (74-102) (Exon 3/Insert 2 domain) preparation, 1 mg of Tau-74 was suspended in 1 mL of PBS and the sample was incubated at 37° C. for 2 hrs. Similarly for preparing Tau-275 (275-305) (Repeat 2 domain) 1 mg of the peptide was suspended in 1 mL of PBS and the sample was incubated at 37° C. for 2 hrs. After incubation, all the samples were centrifuged for 5 min. at 5000 rpm to remove precipitate, if any, and the supernatant containing oligomers/aggregates were used for in vitro amyloid plaque particles formation assay. For detecting Tau plaque particles, Thioflavin S (Ex/Em=430 nm/550 nm) amyloid binding fluorescent dye (10 μg) was used in the assay.
Next, to isolate Tau plaque particles, as performed for Abeta-42 and Abeta-28 plaque particles isolation, diluted serum samples were used for incubation separately with Tau-45, Tau-74 and Tau-275 oligomers/aggregates. Each assay was performed in 1 mL reaction (800 μL of 50% plasma or serum) and 200 μL (30 μg) of each Tau aggregates and the mixtures were incubated at 37° C. for 1 hr. To the each mixture Thioflavin S dye (120 μg) was added and the sample was incubated for additional 30 min at 37° C. After the incubation, each sample was directly used for sample acquisition using flow cytometer (FACS ARIA II, BD Biosciences, San Jose, Calif.). After initial detection of Tau plaque particles, gates were drawn in the acquisition blot to separately sort and isolate fluorescently labeled Tau plaque particles.
as §1, §2

B1: Serum paraoxonase/arylesterase (protein)
chain: AKLIALTLLGMGLALFRNHQSSYQTRLNALREVQPVELPNCNLVKGIETGSEDLEILPNGLAFISSGLKYPGIKSFNPNSPGKILLMDLNEEDPTVLELGITGSKFDVSSFNPHGISTFTDEDNAMYLLVVNHPDAKSTVELFKFQEEEKSLLHLKTIRHKLLPNLNDIVAVGPEHFYGTNDHYFLDPYLQSWEMYLGLAWSYVVYYSPSEVRVVAEGFDFANGINISPDGKYVYIAELLAHKIHVYEKHANWTLTPLKSLDFNTLVDNISVDPETGDLWVGCHPNGMKIFFYDSENPPASEVLRIQNILTEEPKVTQVYAENGTVLQGSTVASVYKGKLLIGTVFHKALYCEL
For B1, in assay [1], the “Semi-quantitative analysis of proteins binding to different plaque particles: Abeta-42” value is 2. For the same molecule, the “Semi-quantitative analysis of proteins binding to different plaque particles: Chl Large” value in assay [2] came to 5. Also, the “Semi-quantitative analysis of proteins binding to different plaque particles: Chl small” value in assay [3] stood at 6. Also, in assay [4], the “Semi-quantitative analysis of proteins binding to different plaque particles: Synuclein” value was determined as 7. The “Semi-quantitative analysis of proteins binding to different plaque particles: Tau” value in assay [5] amounted to 3.

B2: CD5 antigen-like (protein)
chain: SPSGVRLVGGLHRCEGRVEVEQKGQWGTVCDDGWDIKDVAVLCRELGCGAASGTPSGILYEPPAEKEQKVLIQSVSCTGTEDTLAQCEQEEVYDCSHDEDAGASCENPESSFSPVPEGVRLADGPGHCKGRVEVKHQNQWYTVCQTGWSLRAAKVVCRQLGCGRAVLTQKRCNKHAYGRKPIWLSQMSCSGREATLQDCPSGPWGKNTCNHDEDTWVECEDPFDLRLVGGDNLCSGRLEVLHKGVWGSVCDDNWGEKEDQVVCKQLGCGKSLSPSFRDRKCYGPGVGRIWLDNVRCSGEEQSLEQCQHRFWGFHDCTHQEDVAVICSG
Take B2: the “Semi-quantitative analysis of proteins binding to different plaque particles: Abeta-42” value in assay [1] is on record as 4. The “Semi-quantitative analysis of proteins binding to different plaque particles: Chl Large” value in assay [2] stood at 6. For the same molecule, the “Semi-quantitative analysis of proteins binding to different plaque particles: Chl small” value in assay [3] amounted to 7. Further, the “Semi-quantitative analysis of proteins binding to different plaque particles: Synuclein” value in assay [4] was 6. Moreover, the “Semi-quantitative analysis of proteins binding to different plaque particles: Tau” value in assay [5] is on record as 3.

B3: C4b-binding protein alpha chain (protein)
chain: NCGPPPTLSFAAPMDITLTETRFKTGTTLKYTCLPGYVRSHSTQTLTCNSDGEWVYNTFCIYKRCRHPGELRNGQVEIKTDLSFGSQIEFSCSEGFFLIGSTTSRCEVQDRGVGWSHPLPQCEIVKCKPPPDIRNGRHSGEENFYAYGFSVTYSCDPRFSLLGHASISCTVENETIGVWRPSPPTCEKITCRKPDVSHGEMVSGFGPIYNYKDTIVFKCQKGFVLRGSSVIHCDADSKWNPSPPACEPNSCINLPDIPHASWETYPRPTKEDVYVVGTVLRYRCHPGYKPTTDEPTTVICQKNLRWTPYQGCEALCCPEPKLNNGEITQHRKSRPANHCVYFYGDEISFSCHETSRFSAICQGDGTWSPRTPSCGDICNFPPKIAHGHYKQSSSYSFFKEEIIYECDKGYILVGQAKLSCSYSHWSAPAPQCKALCRKPELVNGRLSVDKDQYVEPENVTIQCDSGYGVVGPQSITCSGNRTWYPEVPKCEWETPEGCEQVLTGKRLMQCLPNPEDVKMALEVYKLSLEIEQLELQRDSARQSTLDKEL
B3: in assay [1], the “Semi-quantitative analysis of proteins binding to different plaque particles: Abeta-42” value is 0. Further, the “Semi-quantitative analysis of proteins binding to different plaque particles: Chl Large” value in assay [2] was found to be 8. Further, the “Semi-quantitative analysis of proteins binding to different plaque particles: Chl small” value in assay [3] is listed as 8. The “Semi-quantitative analysis of proteins binding to different plaque particles: Synuclein” value in assay [4] is 7. Moreover, the “Semi-quantitative analysis of proteins binding to different plaque particles: Tau” value in assay [5] stood at 1.

B4: Angiotensinogen (protein)
chain: DRVYIHPFHLVIHNESTCEQLAKANAGKPKDPTFIPAPIQAKTSPVDEKALQDQLVLVAAKLDTEDKLRAAMVGMLANFLGFRIYGMHSELWGVVHGATVLSPTAVFGTLASLYLGALDHTADRLQAILGVPWKDKNCTSRLDAHKVLSALQAVQGLLVAQGRADSQAQLLLSTVVGVFTAPGLHLKQPFVQGLALYTPVVLPRSLDFTELDVAAEKIDRFMQAVTGWKTGCSLMGASVDSTLAFNTYVHFQGKMKGFSLLAEPQEFWVDNSTSVSVPMLSGMGTFQHWSDIQDNFSVTQVPFTESACLLLIQPHYASDLDKVEGLTFQQNSLNWMKKLSPRTIHLTMPQLVLQGSYDLQDLLAQAELPAILHTELNLQKLSNDRIRVGEVLNSIFFELEADEREPTESTQQLNKPEVLEVTLNRPFLFAVYDQSATALHFLGRVANPLSTA
On to B4, for which the “Semi-quantitative analysis of proteins binding to different plaque particles: Abeta-42” value in assay [1] was found to be 14. For the same molecule, the “Semi-quantitative analysis of proteins binding to different plaque particles: Chl Large” value in assay [2] is reported as 10. In assay [3], the “Semi-quantitative analysis of proteins binding to different plaque particles: Chl small” value came to 9. The “Semi-quantitative analysis of proteins binding to different plaque particles: Synuclein” value in assay [4] came to 7. For the same molecule, the “Semi-quantitative analysis of proteins binding to different plaque particles: Tau” value in assay [5] was 15.

The values above are taken from patent US9618524B2, “Method, composition, isolation and identification of a plaque particle and related biomarker” (Plaxgen Inc., priority 2012, dated 2017).
